Target: human insulin (disulfide-bonded heterodimer), P01308
Sequence (P01308 whole entry, looked up, one chain of several): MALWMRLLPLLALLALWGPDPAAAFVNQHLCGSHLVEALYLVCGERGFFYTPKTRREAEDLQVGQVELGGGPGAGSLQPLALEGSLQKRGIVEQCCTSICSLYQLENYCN

| Protein | disulfide reduction activity by RP-HPLC (main HIC fraction after drying and reconstitution in saline) | conversion of insulin heterodimer peak (RP-HPLC insulin reduction, 0.025 mM ORP-100, pH 6, 60 min) |
| --- | --- | --- |
| ORP100S (fully monocysteinic human thioredoxin-1, reduced form) (protein) VKQIESKTAFQEALDAAGDKLVVVDFSATWCGPSKMIKPFFHSLSEKYSNVIFLEVDVDDSQDVASESEVKSMPTFQFFKKGQKVGEFSGANKEKLEATINELV | the main fraction showed comparable disulfide reduction activity by DTNB and RP-HPLC to thioredoxin compositions purified without removing the red fraction | – |
| ORP-100 (C35S monocysteinic active site thioredoxin) (protein) VKQIESKTAFQEALDAAGDKLVVVDFSATWCGPSKMIKPFFHSLSEKYSNVIFLEVDVDDCQDVASECEVKCMPTFQFFKKGQKVGEFSGANKEKLEATINELV | – | even at acidic pH 6 ORP-100 is able to markedly reduce the insulin heterodimer peak, and at 1/500 the concentration of NAC |

— patent US20230071765
